± gives the uncertainty stated by the source.
Experiment: amyloid nucleation score (Sup35N fusion, yeast selection) (log enrichment); library NNK2; higher = more nucleation; inactive = no reads after selection
How it was run: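 Using DiMSum, nucleation scores were taken as the log enrichment of output over input reads, centred on the mode score of non-aggregating sequences. The input and output reads came from Illumina sequencing of plasmid inserts, with sequences under 100 input reads excluded. The yeast were psi-negative, expressed Sup35N fused to peptides of 20 random codons, were induced with 100 μM copper sulfate for 24 hours, and were grown 7 days at 30°C on medium lacking adenine and uracil.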

Substance	amyloid nucleation score
GTGIHLLLLVGSGDSSREMM	-1.08 ± 0.36
RTRSSYGVVLKIRKWCPEVA	1.18 ± 0.61
LGVFWIDWPLLLGFRSRTGV	-0.393 ± 1.1
LVKTFYKKWIVREREFWILR	-0.176 ± 1.1
TTRSRVWRKLGSSCTI	0.242 ± 0.31
WCIFL	4.87 ± 0.087
FYFEMVTSD	inactive
YRVYLQRHSGA	3.78 ± 0.069
LSIMHYIIYRLDFAFSWKGG	-1.05 ± 1.1
SGIAWSLVNVGLGYHYMQGG	0.178 ± 0.39
CSRLG	-1.39 ± 1.1
ESQNECVGYNMLDCMKLSRG	4.052 ± 0.037
EVRSALYAYEGYLRVFRSFR	0.819 ± 0.46
IKRSTNISEMWHYSFGVTVL	-1.09 ± 0.63
LLLPLFII	inactive
IPILSFMRGLALSRSATYMS	inactive
ELTSLQVMLSNDEMMGGRVN	0.064 ± 0.3
SASMHWYSSRCDTL	0.275 ± 0.29
FDVSFILSL	-1.34 ± 1
SYSSPHRINGCVIRP	-0.084 ± 0.54
VWTSIYDFSLWADYGQK	-1.58 ± 1.1
HNVGILWSSCCSRMYIAYAY	-0.288 ± 1

Substance	amyloid nucleation score
KIIVHYIYRRIRLCDSNLKR	8.398 ± 0.046
VNCIASSFSLPRRTLSNSMD	inactive
FQLYT	0.238 ± 0.29
DIIRMGFRPFWQGVCVRLSY	-0.669 ± 0.63
RASANYRSSYFERSPDVVRE	3.63 ± 0.14
VEGVFLISMPPWPFYRLPSR	0.961 ± 0.81
LTSGQEGG	0.047 ± 0.45
APNMKSNLYFPEVRLNEGSR	0.714 ± 0.53
QQVQNAVCGWESYCSQLNRR	-0.241 ± 0.48
FLMEVSLTLSFLERSNVLKG	3.8 ± 0.067
GSRGMVFQMFT	0.94 ± 0.48
GGISKIFVWEVSIVHYSNIS	inactive
KLDTLRFCVGAHLGTPTLCW	0.499 ± 0.34
QLHSLKKKRKY	-0.625 ± 0.28
LKEDF	inactive
MQKRRDSKYEYLVFGCDVCM	-1.13 ± 1.1
HRFSGVVIYNINRSSTIGN	7.328 ± 0.04
SVWGKD	0.073 ± 0.63
SPFRTDHVF	-0.311 ± 0.33
NMVLWWPIMYHLAWRLGHDV	-0.137 ± 0.38
FGPSRYTRSVFSVEQTSL	-0.114 ± 1
KFAKSSNKDHHDFYAVELGT	-0.289 ± 0.63

Substance	amyloid nucleation score
QRLVSLYFRLSDGHMD	3.3 ± 0.06
SMNSLSIVYLDYASGAWMDL	-0.127 ± 0.49
TGGISYLD	inactive
TMWGNI	-1.59 ± 0.48
MSWIGCYYYFNAQQHNSG	9.318 ± 0.052
VVLRHHLFSSALYICMRGIQ	inactive
SKFYNSYSYFTLFVVVLMFD	-0.936 ± 1.1
REFLCCGN	3.36 ± 0.075
YIIDRKEHFLSKCY	-0.738 ± 0.55
QIRPLRKRELYSW	2.64 ± 0.066
RCSGVP	0.908 ± 0.23
GGTLHWLAMDTNMVNMACIG	inactive
VCTNFWELMVWAQQLLFCKL	inactive
SLSSGHETVR	3.69 ± 0.15
AVMAISMRS	0.514 ± 0.56
SVAASGFHVV	-1.57 ± 0.76
YKRRRWRVENRNGVSFSHTD	0.806 ± 0.3
YVVEHQLMYAVWLFALGGSN	0.655 ± 0.24
VNREYLLAVTVILQNVKTEE	8.609 ± 0.036
DRLAILSNFGVVMIPTLRLY	-0.09 ± 0.4
KVYATVDFDLLGQAPTSAMN	4.83 ± 0.091
SSYTMEPPHVRA	0.155 ± 1.1

Substance	amyloid nucleation score
PSRPCGLRELAYADSAKQLW	1.15 ± 0.34
QCKVQCKEWVYNVFAKLQDS	-0.927 ± 1.1
RTWAFFKAVWGIVDRTTLSN	-1.13 ± 0.62
GCKNR	0.226 ± 0.51
LTRLFYPWK	-0.14 ± 1.1
LVYLIGSGNLQRISFPQRRV	5.51 ± 0.067
MIMHNVANDWTVFYFLCRVV	-0.723 ± 0.55
VLLEIY	-0.384 ± 0.65
LWVVILGVGTSSNESYCKYV	-0.427 ± 0.45
IVRWCLLIIIF	inactive
SYPFYVFSSNASSTAVIKLT	1.07 ± 0.19
IIPLMLFSTLWGFKVHMKGY	-0.207 ± 0.55
SVRPRPD	0.617 ± 0.23
VLNIARVRHDKG	3.7 ± 0.051
NFLDMEWTNLLSVMCVDFWS	4.55 ± 0.062
KEPGERRYGTAASMNYTKVD	-0.71 ± 1
FDLNVVDIFTLCMRKRYTME	inactive
IYLTLNGILAICASRAWAAK	0.094 ± 0.77
TIWFFFL	7.075 ± 0.043
AVNCH	0.748 ± 0.19
TIIRDFSWLHLGFPRACIIT	-0.976 ± 0.64

Reference: the supplement of paper PMC12042874
